Source: patent US20240327505A1 (published 2024)

The binders below were run against SARS-CoV-2 spike S1 protein (SARS-CoV-2, UniProt P0DTC2 16-685).

Row | Binder | Kd | koff | kon
1 | AB-009108 (antibody, V domains shown) VH: QVQLQESGPGLVKPSETLALTCTVSGDSIINNNFYWGWLRQPPGQGLEWIGSLFHTGSAYYNSSLKSRVRSSVDTARNQISLRLSSVTAADTAVYYCARVNIVSVPAPPGAIEGWFDPWGQGTRVTVSP VL: SYELTQPPSVSVSLGQTARISCSGDALPTKYVHWYQQKAGQAPVVVIFRDTERPSEIPERFSGSSSGTTVTLTISGVQAEDEADYYCQSVDGSGFYVFGSGTKVTVL | 94.3 nM | 0.0126 s⁻¹ | 134000 M⁻¹ s⁻¹
2 | AB-009280 (antibody, V domains shown) VH: QVQLVESGGGVVQPGRSLRLSCAASGFTFSSYGMHWVRQAPGKGLEWVAVISYDGSNKYYADSVKGRFTISRDNSKNTLYLQMNSLRAEDTAVYYCAKSRGGGYYYYYMDVWGKGTTVTVSS VL: DIQMTQSPSSLSASVGDRVTITCRASQGISNYLAWFQQKPGKAPKSLIYAASSLQSGVPSKFSGSGSGTDFTLTISSLQPEDFATYYCQQYNSYPPTFGQGTKLEIK | 20.5 nM | 0.000536 s⁻¹ | 26200 M⁻¹ s⁻¹
3 | AB-009275 (antibody, V domains shown) VH: QVTLRESGPALVKPTQTLTLTCTFSGFSLSTSGMRVSWIRQPPGKALEWLARIDWDDDKFYSTSLKTRLTISKDTSKNQVVLTMTNMDPVDTATYYCARSNYDILTGRLDAFDIWGQGTMVTVSS VL: not shown | 127 nM | 0.00083 s⁻¹ | 6530 M⁻¹ s⁻¹
4 | AB-009609 (antibody, V domains shown) VH: QVQLVQSGAEVKKPGASVKVSCKVSGYTLTELSMHWVRQAPGKGLEWMGGFDPEDAETIYAQKFQGRVTMTEDTSTDTAYMELSSLRSEDTAVYYCATALAVTGTSDSYYYYYGMDVWGQGTTVTVSS VL: not shown | 49.4 nM | 0.00229 s⁻¹ | 46400 M⁻¹ s⁻¹
5 | AB-009619 (antibody, V domains shown) VH: QVQLVQSGAEVKKPGASVKVSCKVSGYTLIELSMHWVRQAPGKGLEWMGGFDPEDGETIYAQKFQGRVTMTEDTSTDTAYMELSSLRSEDTAVYYCATGPAAATSGWFDPWGQGTLVTVSS VL: QSALTQPASVSGSPGQSITISCTGTSSDVGGYNYVSWYQQHPGKAPKLMIYDVSNRPSGVSNRFSGSKSGNTASLTISGLQAEDEADYYCSSYTSSSTRVFGGGTKLTVL | 25.8 nM | 0.000726 s⁻¹ | 28100 M⁻¹ s⁻¹
6 | AB-009634 (antibody, V domains shown) VH: QVTLKESGPALVKPTQTLTLTCTFSGFSLSTSGMRVSWIRQPPGKALEWLARIDWDDDKFYSTSLKTRLTISKDTSKNQVVLTMTNMDPVDTATYYCARYYYYGMDVWGQGTTVTVSS VL: not shown | 24.8 nM | 0.000496 s⁻¹ | 20000 M⁻¹ s⁻¹
7 | AB-009635 (antibody, V domains shown) VH: not shown VL: SYELTQPPSVSVSPGQTARITCSGDALPKKYAYWYQQKSGQAPVLVIYEDSKRPSGIPERFSGSSSGTMATLTISGAQVEDEADYYCYSTDSSGNHRVFGGGTKLTVL | 10.5 nM | 0.000749 s⁻¹ | 71500 M⁻¹ s⁻¹
8 | AB-009637 (antibody, V domains shown) VH: QVQLVQSGAEVKKPGSSVKVSCKASGGTFSSYAISWVRQAPGQGLEWMGGIIPILGTANYAQKFQGRVTITADKSTSTAYMELSSLRSEDTAMYYCAREGGFYGSGRNFDYWGQGTLVTVSS VL: not shown | 412 nM | 0.000174 s⁻¹ | 421 M⁻¹ s⁻¹
9 | AB-009646 (antibody, V domains shown) VH: QVQLVESGGGVVQPGRSLRLSCAASGFTFSSYAMHWVRQAPGKGLEWVAVISYDGSNKYYADSVKGRFTISRDNSKNTLYLQMNSLRAEDTAVYYCARACSSTSCYKGDAFDIWGQGTMVTVSS VL: SYELTQPPSVSVSPGQTARITCSGDALPKQYAYWYQQKPGQAPVLVIYKDSERPSGIPERFSGSSSGTTVTLTISGVQAEDEADYYCQSADSSGTYSWVFGGGTKLTVL | 150 nM | 0.00231 s⁻¹ | 15500 M⁻¹ s⁻¹
10 | AB-009722 (antibody, V domains shown) VH: QVQLVQSGAEVRKPGSSVKVSCNVSGGIFNSYKITWVRQAPGQGLEWMGGIIAIFGTADYAQRFQGRLSITADESTSTAYMELSSLRSDDTAVYYCTRERFSNYFDPWGQGTLVTVSS VL: EVVLTQSPATLSLSPGERATLSCRASQSVSSFLGWYQQKPGQAPRLLIYDASNRASGIPARFSGSGSGTDFTLTISKLEPEDFAVYYCQQRSRGPSGITFGQGTRLEIK | 41.2 nM | 0.00236 s⁻¹ | 57300 M⁻¹ s⁻¹
11 | AB-009731 (antibody, V domains shown) VH: QVQLVQSGAEVKKTGASVKLSCKASGYSLTSYAMHWVRQAPGQRLEWMGWLNGGNGNTKYSQKFQARVTITSDTSARTVYMELSSLTSEDTAVYYCARADHSTYWYGWFDPWGQGTLVTVSS VL: QSVLTQPPSASGTPGQRVTISCSGSTSNIGSNYVFWYQQFPGTAPKLLIYRNDQRPSGVPDRFSASKAGTSASLAISGLRSEDEADYYCTSWDDSLNGPLFGGGTKLTVL | 47.9 nM | 0.00294 s⁻¹ | 61400 M⁻¹ s⁻¹

Target: SARS-CoV-2 spike S1 protein (SARS-CoV-2, UniProt P0DTC2 16-685)
Remark: another data set of the same source

Row | Binder | Kd | koff | kon
12 | AB-009346 (antibody, V domains shown) VH: EVQLVESGGGVVRPGGSLRLSCAASGFTFDDYGMSWVRQAPGKGLEWVSGINWNGGSTGYADSVKGRFTISRDNAKNSLYLQMNSLRAEDTALYYCARWPLLGISGYYHYYMDVWGKGTTVTVSS VL: QSALTQPRSVSGSPGQSVTISCTGTSSDVGGYNYVSWYQQHPGKAPKLMIYDVSKRPSGVPDRFSGSKSGNTASLTISGLQAEDEADYYCCSYAGSYTLLFGGGTKLIVL | 12.5 nM | 0.000523 s⁻¹ | 41700 M⁻¹ s⁻¹
13 | AB-009281 (antibody, V domains shown) VH: EVQLVETGGGLIQPGGSLRLSCAASGFTVSSNYMSWVRQAPGKGLEWVSVIYSGGSTYYADSVKGRFTISRDNSKNTLYLQMNSLRAEDTAVYYCARDLYYYGMDVWGQGTTVTVSS VL: DIQLTQSPSFLSASVGDRVTITCRASQGISSYLAWYQQKPGKAPKLLIYAASTLQSGVPSRFSGSGSGTEFTLTISSLQPEDFATYYCQQLNSYPTFGQGTKVEIK | 16.7 nM | 0.00136 s⁻¹ | 81200 M⁻¹ s⁻¹
14 | AB-009270 (antibody, V domains shown) VH: QMQLVQSGPEVKKPGTSVKVSCKASGFTFTSSAMQWVRQARGQRLEWIGWIVVGSGNTNYAQKFQERVTITRDMSTSTAYMELSSLRSEDTAVYYCAVNYCSSTSCYDAFDIWGQGTMVTVSS VL: not shown | 3.02 nM | – | –
15 | AB-009615 (antibody, V domains shown) VH: QVQLVESGGGVVQPGRSLRLSCAASGFTFSSYGMHWVRQAPGKGLEWVAVIWYDGSNKYYADSVKGRFTISRDNSKNTLYLQMNSLRAEDTAVYYCAKVGSPYCSGGSCYSGYFDYWGQGTLVTVSS VL: not shown | 36.6 nM | 0.00276 s⁻¹ | 75400 M⁻¹ s⁻¹

What follows are binders tested against SARS-CoV-2 spike S2 protein (SARS-CoV-2, UniProt P0DTC2 686-1213).

Row | Binder | Kd | koff | kon
16 | AB-009074 (antibody, V domains shown) VH: QVQLVESGGGVVQPGRSLRLSCAASGFTFSSYGMHWVRQAPGKGLEWVAVIWYDGSNKYYADSVKGRFTISRDNSKNTLYLQMNSLRAEDTAVYYCAREGLVGATTGFDYWGQGTLVTVSS VL: SYELTQPPSVSVSPGQTARITCSGDALPKKYAYWYQQKSGQAPVLVIYEDSKRPSGIPERFSGSSSGTMATLTISGAQVEDEADYYCYSTDSSGNHGVFGTGTKVTVL | 91.3 nM | 0.0011 s⁻¹ | 12000 M⁻¹ s⁻¹
17 | AB-009078 (antibody, V domains shown) VH: QITLKESGPTLVKPTQTLTLTCTFSGFSLSTSGVGVGWIRQPPGKALEWLALIYWDDDKRYSPSLKSRLTITKDTSKNQVVLTMTNMDPVDTATYYCAHRPGDFWSGYYRYWGQGTLVTVSS VL: not shown | 0.0474 nM | 2.44e-07 s⁻¹ | 5150 M⁻¹ s⁻¹
18 | AB-009117 (antibody, V domains shown) VH: ELQLVESGGGLVKPGGSLRLSCTASGFTFISYSISWVRQAPGKGLEWVSSISSYSNYIFYGDSVKGRFNISRDNPKNSVYLQLNSLRAEDTAVYYCVRDTSFYEGGGYYNRFEPWGQGTRVTVSS VL: EIVMTQSPATLSVSPGERATLSCRASQSISINLAWYQQRPGQAPRLLIYGASTRATGIPARFSGSGSGTEFTLTISSLQSEDSAVYYCQQYNNWPPYTFGQGTTLEIK | 11.5 nM | 0.000438 s⁻¹ | 38200 M⁻¹ s⁻¹
19 | AB-009123 (antibody, V domains shown) VH: QVQLLQSGAEVRKPGASVKVSCKASGYTFSSYVMHWVRQAPGQGLEWMGWINTGNGNTRYSQKIQGRVTFTIDTAANTVNMEVSSLRSEDTAVYYCAREGLRATHYFDYWGRGTLVTVSS VL: SYELTQPPSVSVSSGQTASIPCSGDRVGDRYVCWYQQKPGQSPVLVIYQDSKRPSGIPERFSGSNSGSTATLTISGTQAIDEADYYCQAWDSSTGGVFGGGTKLTVL | 18.9 nM | 0.000802 s⁻¹ | 42500 M⁻¹ s⁻¹
20 | AB-009263 (antibody, V domains shown) VH: EVQLVQSGAEVKKPGESLRISCQSSGYSFSTYWIAWVRQTPEKGLEWMGIIYPGDSDTRYSPTFQGQVTISADTSISTAYLQWSSLKASDTAVYYCARFRFNWLLSYYYYYMDVWGKGTTVSVSS VL: QSALTQPDSVSGSPGQSIAISCTGTSRDVGGYNYVSWYQQHPGKAPKLMIYEVSNRPSGVSDRFSGSKSDNTASLTISGLQGDDEANYYCSSYTDSGTLVFGGGTKVTVL | 0.0383 nM | 3.82e-07 s⁻¹ | 9980 M⁻¹ s⁻¹
21 | AB-009306 (antibody, V domains shown) VH: QVQLVQSGAEVKKPGASVKVPCKASGYTFTSYQMHWVRRAPGQGLEWMGLIDPDTGGTRYTQNFQGRVTMTRDTSTTTVYMELNSLTSGDTAVYYCARGGRVGATYPYNMDVWGKGTTVTVSS VL: SYELTQPPSVSVSPGQTARITCSGDALPKKYAYWYQQKSGQAPVLVIYEDSKRPSGIPERFSGSSSGTMATLTISGAQVEDDSDYYCFSTDSSGNHGVFGGGTRLTVL | 0.22 nM | 2.44e-07 s⁻¹ | 1110 M⁻¹ s⁻¹
22 | AB-009293 (antibody, V domains shown) VH: QAQLVESGGGVVQPGRSLRLSCAASGFNFNNYGMHWVRLAAGKGLEWVAFISYEGSITHYADSVKGRFTVSRDFSKNTLYLQMNRLTTGDTAVYYCAKRREVLHLWRDEMDVWGQGTTVTVSS VL: DIQMTQSPPSLSASVGDRVTFTCRASQDITNSLAWFQQRPGKAPKSLIYAASTLHSGVPSKFSGSGSGTDFTLTITSLQPEDVATYYCQQYKTYPFTFGQGTRLEIK | 0.0628 nM | 3.25e-07 s⁻¹ | 5170 M⁻¹ s⁻¹
